Laboratory results as given in patent publication US20110217282A1 (UNIVERSITY OF MEDICINE AND DENTISTRY OF NEW JERSEY, published 2011).

Biological target: T1, YgiT (E. coli, UniProt Q46864 1-131)
T1 construct: YgiT with no tag named, co-expressed with H-MqsR from pET-MqsRYgiT (the operon cloned in pET28a) or induced from pBAD-YgiT in cells; also called YgiT of the H-MqsRYgiT complex; YgiT expressed from pBAD-YgiT
T1 sequence: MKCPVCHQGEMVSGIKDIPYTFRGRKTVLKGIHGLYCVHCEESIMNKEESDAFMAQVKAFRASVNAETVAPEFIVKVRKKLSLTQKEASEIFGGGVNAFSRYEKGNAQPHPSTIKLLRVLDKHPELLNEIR
Test: co-expression and co-purification on Ni-NTA agarose through the tag of H-MqsR

B1: N-terminal histidine-tagged MqsR (enzyme)
chain: MEKRTPHTRLSQVKKLVNAGQVRTTRSALLNADELGLDFDGMCNVIIGLSESDFYKSMTTYSDHTIWQDVYRPRLVTGQVYLKITVIHDVLIVSFKEK
notes: also called H-MqsR; His-MqsR; not shown: N-terminal histidine tag from pET28a
binding result: binds
